The assay addresses T1, PA-SERCA2b (recombinant SERCA2b with an N-terminal PA-tag) (human, UniProt P16615-1 1-1042).
T1 construct: human SERCA2b; cDNA in the pFastBac1 vector; source: Sf21 cells (baculovirus), solubilised with DDM, purified on anti-PA-tag NZ-1 Sepharose, eluted with PA-tag peptide; not shown: PA-tag, N-terminal, kept
Nature of the assay: pull-down; PA-SERCA2b (50 pmol) incubated with FLAG–TER (125 pmol) immobilised on anti-FLAG mAb resin, or resin alone, 4 °C 2 h; buffer H (50 mM Hepes–NaOH pH 7.0, 100 mM NaCl, 1 mM MgCl2, 5 mM EGTA, 1% DDM, 20% glycerol) with or without 100 nM free Ca2+; CBB staining; also 0.25 uM PA-SERCA2b pretreated with 2.5 uM thapsigargin (less pulled down). The conditions noted are these: both partners purified.

T1 sequence (P16615 whole entry): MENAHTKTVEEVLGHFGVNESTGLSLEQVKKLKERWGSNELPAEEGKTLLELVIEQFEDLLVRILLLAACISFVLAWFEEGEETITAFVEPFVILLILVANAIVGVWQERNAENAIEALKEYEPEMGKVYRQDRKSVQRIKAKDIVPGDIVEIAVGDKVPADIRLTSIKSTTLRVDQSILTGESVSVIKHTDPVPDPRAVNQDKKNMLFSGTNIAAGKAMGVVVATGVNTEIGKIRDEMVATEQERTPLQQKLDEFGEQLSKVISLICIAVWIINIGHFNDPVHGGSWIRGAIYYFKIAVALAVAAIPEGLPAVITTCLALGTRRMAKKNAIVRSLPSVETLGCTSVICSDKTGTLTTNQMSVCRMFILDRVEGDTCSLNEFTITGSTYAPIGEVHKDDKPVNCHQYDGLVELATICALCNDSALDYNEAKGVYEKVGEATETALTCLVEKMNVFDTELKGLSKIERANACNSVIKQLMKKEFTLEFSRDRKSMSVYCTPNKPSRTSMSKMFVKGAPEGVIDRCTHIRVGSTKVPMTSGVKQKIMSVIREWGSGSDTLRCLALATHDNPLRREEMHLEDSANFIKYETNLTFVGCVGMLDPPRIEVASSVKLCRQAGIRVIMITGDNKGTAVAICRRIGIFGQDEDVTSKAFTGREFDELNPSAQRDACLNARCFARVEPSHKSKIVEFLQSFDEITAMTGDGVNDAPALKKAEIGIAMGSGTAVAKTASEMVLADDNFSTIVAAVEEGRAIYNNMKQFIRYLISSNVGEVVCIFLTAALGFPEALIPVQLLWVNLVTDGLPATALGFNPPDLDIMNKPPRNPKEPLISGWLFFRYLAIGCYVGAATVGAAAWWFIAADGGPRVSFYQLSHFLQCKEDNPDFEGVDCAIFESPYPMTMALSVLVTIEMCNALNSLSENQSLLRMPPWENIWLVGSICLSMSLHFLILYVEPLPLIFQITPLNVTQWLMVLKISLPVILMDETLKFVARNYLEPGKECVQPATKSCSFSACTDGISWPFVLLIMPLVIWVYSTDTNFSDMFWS

B1: FLAG–TER (recombinant TER with an N-terminal FLAG-tag), from insect cells (enzyme, human, UniProt Q9NZ01 1-308, looked up)
chain: MKHYEVEILDAKTREKLCFLDKVEPHATIAEIKNLFTKTHPQWYPARQSLRLDPKGKSLKDEDVLQKLPVGTTATLYFRDLGAQISWVTVFLTEYAGPLFIYLLFYFRVPFIYGHKYDFTSSRHTVVHLACICHSFHYIKRLLETLFVHRFSHGTMPLRNIFKNCTYYWGFAAWMAYYINHPLYTPPTYGAQQVKLALAIFVICQLGNFSIHMALRDLRPAGSKTRKIPYPTKNPFTWLFLLVSCPNYTYEVGSWIGFAIMTQCLPVALFSLVGFTQMTIWAKGKHRSYLKEFRDYPPLRMPIIPFLL
notes: human trans-2-enoyl-CoA reductase (TER); cDNA in the pFastBacFLAGa vector; not shown: FLAG, N-terminal, kept
With B1, the binding result was “binds”.

For the origin of these results see paper PMC7949109, “Trans-2-enoyl-CoA reductase limits Ca^2+ accumulation in the endoplasmic reticulum by inhibiting the Ca^2+ pump SERCA2b” (The Journal of Biological Chemistry, 2021).
